Here are results for six substances from paper PMC2655680.

In one experiment the target is PNK-FHA (FHA domain of human polynucleotide kinase 3'-phosphatase, amino acids 1-109) (human) (UniProt Q96T60). Put plainly: ITC.
“XRCC1 peptide YAGSTDENpTDSE, phosphorylated on Thr523” showed a Kd of 13.5 µM.
Regarding “XRCC1 peptide YAGpSpTDENpTDSE, phosphorylated on Ser518, Thr519 and Thr523”, the stoichiometry N came out at 0.46.
The substance “XRCC1 peptide YAGSpTDENpTDSE, phosphorylated on Thr519 and Thr523” displayed a Kd of 0.76 µM and a stoichiometry N of 0.51.
In turn, “XRCC1 peptide YAGSpTDENTDSE, phosphorylated on Thr519” showed a Kd of 10.6 µM.
Turning to “XRCC1 peptide YAGpSTDENpTDSE, phosphorylated on Ser518 and Thr523”, the Kd came to 24.2 µM.
Regarding “XRCC1 peptide YAGpSpTDENTDSE, phosphorylated on Ser518 and Thr519”, the Kd came to 1.23 µM and the stoichiometry N amounted to 0.51.

A further experiment shares this target. Put plainly: ITC. This is another data set of the same source. Background: ITC needs no label: the signal is the heat of the interaction.
Regarding “XRCC1 peptide YAGSpTDENpTDSE, phosphorylated on Thr519 and Thr523”, the Kd was 0.7 µM.

In general, Kd refers to a measure of binding affinity in units of concentration. Low readings indicate a tighter complex, high ones a looser complex. In general, stoichiometry N refers to a count of units in the complex or per binding partner.
